Columns and labels:
[1] = target: human Sdc2 on Human Umbilical Vein Endothelial Cells (HUVEC) (human, UniProt P34741 19-201); experiment: cell-based or functional assay
[2] = target: T1, human Sdc2 (human, UniProt P34741 19-144, limits assumed); experiment: Octet tandem binning; saturating Ab m7 19844-R3-P1-E07
T1 construct: Antigen of the Octet tandem binning, loaded on biosensors at 100 nM; also called huSdc2; hSdc2

[3] = target: T1, human Sdc2; experiment: Octet tandem binning; saturating Ab f12 19838-6-N03-A
[4] = target: T2, pig Sdc2 (pig, UniProt F1S0L5 19-145); experiment: Octet BLI, heading box over the sensorgram; the box prints nm, the table gives 2.71E-09 M
T2 construct: also called pSdc2

[5] = target: T1, human Sdc2; experiment: Octet tandem binning; saturating Ab m5 19844-R4M-P3-A12 (row boxed, self-self >0.09)
How it was run: (§1)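 Each competing antibody (5 μg/ml, 180 s) is tested on Sdc2-loaded sensors (antigen at 100 nM) already saturated with another antibody (25 μg/ml, 240 s). Its response is expressed relative to binding without prior saturation.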

[6] = target: T1, human Sdc2; experiment: Octet tandem binning; saturating Ab f4 19844-R3-P3-C11
How it was run: as §1

[7] = target: T1, human Sdc2; experiment: Octet tandem binning; saturating Ab f11 19838-20-H19-A
[8] = target: T1, human Sdc2; experiment: Octet tandem binning; saturating Ab f5 19844-R4M-P3-E06
[9] = target: T1, human Sdc2; experiment: Octet tandem binning; saturating Ab f8 19844-R4M-P2-C02
[10] = target: T1, human Sdc2; experiment: Octet tandem binning; saturating Ab f10 19838-10-I12-A
[11] = target: T1, human Sdc2; experiment: Kd (human Sdc2), summary table of the mAbs
[12] = target: T1, human Sdc2; experiment: Octet tandem binning; saturating Ab m3 19844-R3-P1-C02 (row boxed, self-self >0.09)
[13] = target: T1, human Sdc2; experiment: Octet tandem binning; saturating Ab f9 19838-6-E17-A
[14] = target: T1, human Sdc2; experiment: Octet tandem binning; saturating Ab f6 19844-R3-P3-E09
How it was run: as §1

[15] = target: T1, human Sdc2; experiment: Octet BLI, HIS1K sensor loaded with huSdc2, antibody as sample; Full R2 0.9628
Experimental: (§2) In order to characterize the binding affinity and in vivo/in vitro functional ability of the twelve clones generated by the previous studies and disclosed in Table 1, a series of assays were performed on each clone. These assays measured the affinity of each antibody clone for human, pig, and mouse Sdc2 using an Octet® binding assay system. Additionally, the functional ability of each clone to inhibit VEGFA-driven permeability (see Santiago, et al. (2021) J Am Heart Assoc. 10(18):e020521) was assessed in two therapeutic settings: a “prevention” study in which three concentrations of antibody (5 μg/ml, 10 μg/ml, 15 μg/ml, 20 μg/ml, and/or 40 μg/ml depending on the study) were pre-incubated for an hour before administration of 100 ng/ml of VEGFA, and a “treatment” study in which 3 hours of pre-treatment with 100 ng/ml VEGFA were followed by treatment with antibody at 20 μg/ml or 40 μg/ml. Results are shown for 8-G17 in FIG. 8 and FIG. 9, 20-H19-AB in FIG. 10 and FIG. 11 (FIG. 12 for monkey ECs), R3-P3-C11 in FIG. 13 and FIG. 14, R4M-P3-E06 in FIG. 15 and FIG. 16, R3-P3-E09 in FIG. 17 and FIG. 18, R3-P1-C02 in FIG. 19 and FIG. 20, R3-P3-A12 in FIG. 21 and FIG. 22, R4M-P3-A12 in FIG. 23 and FIG. 24, and R4M-P1-A10 in FIG. 25 and FIG. 26.

[16] = target: T1, human Sdc2; experiment: Octet tandem binning; saturating Ab m1 19838-20H19-AB
[17] = target: T1, human Sdc2; experiment: Octet tandem binning; saturating Ab f7 19844-R3-P3-A12
[18] = target: T1, human Sdc2; experiment: Octet tandem binning; saturating Ab m8 19844-R4M-P1-B01 (marked non-binding ligand)
[19] = target: T1, human Sdc2; experiment: Octet tandem binning; saturating Ab f3 19838-6N03-A
[20] = target: T1, human Sdc2; experiment: Octet tandem binning; saturating Ab m6 19838-20H19-AA (marked non-binding ligand)
[21] = target: T2, pig Sdc2; experiment: Octet BLI, HIS1K sensor loaded with pigSdc2, antibody as sample; Full R2 0.9632
Experimental: as §2

[22] = target: T1, human Sdc2; experiment: Octet tandem binning; Buffer in place of a saturating Ab
[23] = target: T1, human Sdc2; experiment: Octet BLI, heading box over the sensorgram
[24] = target: T3, mouse Sdc2 (mouse, UniProt P43407 19-145, limits assumed); experiment: Octet BLI, heading box over the sensorgram
T3 construct: Immobilised on Maxisorp plates for panning and ELISA; also called mSdc2; moSdc2
T3 sequence (P43407 19-145 limits assumed): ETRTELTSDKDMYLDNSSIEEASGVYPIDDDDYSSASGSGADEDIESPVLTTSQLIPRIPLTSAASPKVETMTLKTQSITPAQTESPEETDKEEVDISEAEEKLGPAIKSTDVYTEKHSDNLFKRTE

[25] = target: T1, human Sdc2; experiment: Octet tandem binning; saturating Ab m2 19838-8G17-A

T1 sequence (P34741 19-144 limits assumed): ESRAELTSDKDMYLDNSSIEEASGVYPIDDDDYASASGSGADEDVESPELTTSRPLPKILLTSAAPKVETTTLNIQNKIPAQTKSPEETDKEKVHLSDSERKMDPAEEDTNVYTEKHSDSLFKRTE
Chain of human Sdc2 on Human Umbilical Vein Endothelial Cells (HUVEC) (P34741 19-201 limits assumed): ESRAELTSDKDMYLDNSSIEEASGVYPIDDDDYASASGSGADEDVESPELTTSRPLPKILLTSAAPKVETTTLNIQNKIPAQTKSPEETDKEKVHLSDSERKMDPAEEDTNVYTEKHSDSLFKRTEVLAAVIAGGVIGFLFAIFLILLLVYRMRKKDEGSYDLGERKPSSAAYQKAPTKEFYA

B1: R4M-P1-A10 (antibody, human IgG1, kappa, V domains shown)
VH: EVQLVETGGGVVQPGRSLRLSCAASGFTFSSYAMHWVRQAPGKGLEWVAVISYDGSNKYYADSVKGRFTISRDNSKNTLYLQMNSLRAEDTAVYYCARDRGWADAFDIWGQGTMVTVSS
VL: QAGLTQPPSVSKGLRQTATLTCTGNSNNVGYQGAVWLLQYQGHPPKVLSNRNNDRPSGISERLSASRSGNTASLTITGLQPEDEGDYFCAAWDGSLRGWVFGGGTKLTVLR
[1]
  % Inhibition of VEGFA-induced permeability at 24hrs (20ug/ml): 100%
[2]
  raw competing-Ab binding signal: 0.353
[3]
  raw competing-Ab binding signal: 0.406
[4]
  Kd: ~2.71 nM
[5]
  raw competing-Ab binding signal: 0.302
[6]
  raw competing-Ab binding signal: 0.193
[7]
  raw competing-Ab binding signal: 0.444
[8]
  raw competing-Ab binding signal: 0.358
[9]
  raw competing-Ab binding signal: 0.211
[10]
  raw competing-Ab binding signal: 0.418
[11]
  Kd: 1.82 nM
[12]
  raw competing-Ab binding signal: 0.255
[13]
  raw competing-Ab binding signal: 0.34
[14]
  raw competing-Ab binding signal: 0.203
[15]
  Kd: 1.82 nM
  koff: 0.00663 s⁻¹
  kon: 3.65e+06 M⁻¹ s⁻¹
[16]
  raw competing-Ab binding signal: 0.439
[17]
  raw competing-Ab binding signal: 0.246
[18]
  raw competing-Ab binding signal: 0.355
[19]
  raw competing-Ab binding signal: 0.362
[20]
  raw competing-Ab binding signal: 0.32
[21]
  Kd: 2.71 nM
  koff: 0.00459 s⁻¹
  kon: 1.69e+06 M⁻¹ s⁻¹
[22]
  raw competing-Ab binding signal: 0.337
[23]
  Kd: ~1.82 nM
[24]
  Kd: ~1.85 nM
[25]
  raw competing-Ab binding signal: 0.377

— patent publication US20250282885A1 (VST BIO, published 2025)
